Key:
[1] = target: T1, AceKMs (Mycolicibacterium smegmatis, UniProt A0QQK1); experiment: HPLC of ATP/ADP, steady-state kinetics; type: biochemical; conditions: read-out: KM (substrate); ADP in excess; 10 mM MgCl2, pH 9.0, room temperature
T1 sequence (A0QQK1 1-376): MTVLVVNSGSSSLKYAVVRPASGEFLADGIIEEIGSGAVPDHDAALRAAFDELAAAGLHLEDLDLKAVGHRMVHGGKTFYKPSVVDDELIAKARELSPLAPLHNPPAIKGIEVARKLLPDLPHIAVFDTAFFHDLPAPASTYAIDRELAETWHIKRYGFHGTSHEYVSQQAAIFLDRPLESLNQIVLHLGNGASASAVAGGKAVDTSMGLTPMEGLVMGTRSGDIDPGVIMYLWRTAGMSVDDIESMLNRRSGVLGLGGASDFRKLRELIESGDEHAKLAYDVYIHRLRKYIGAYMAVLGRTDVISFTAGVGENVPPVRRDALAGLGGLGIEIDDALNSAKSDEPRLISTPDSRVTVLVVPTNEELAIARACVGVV

[2] = substrate: Nc1ncnc2c1ncn2[C@@H]1O[C@H](COP(=O)(O)OP(=O)(O)O)[C@@H](O)[C@H]1O; experiment: purified protein, by the assay type
[3] = substrate: NC(=O)c1ccc[n+]([C@@H]2O[C@H](COP(=O)(O)OP(=O)(O)OC[C@H]3O[C@@H](n4cnc5c(N)ncnc54)[C@H](O)[C@@H]3O)[C@@H](O)[C@H]2O)c1; experiment: purified protein, by the assay type
[4] = substrate: O=P(O)(O)OC[C@H](O)CO; experiment: purified protein, by the assay type
[5] = substrate: OCC(O)CO; experiment: purified protein, by the assay type; conditions: pH 9.0
[6] = substrate: OCC(O)CO; experiment: purified protein; type: biochemical, Thermococcus kodakarensis; conditions: ATP in excess, 10 mM MgCl2, 50 mM NaHCO3 pH 9.0, room temperature
[7] = substrate: O=P(O)(O)OC[C@H](O)CO; experiment: purified protein; conditions: NAD+ co-substrate, 50 mM sodium phosphate pH 9.0, ambient temperature
[8] = substrate: NC(=O)C1=CN([C@@H]2O[C@H](COP(=O)(O)OP(=O)(O)OC[C@H]3O[C@@H](n4cnc5c(N)ncnc54)[C@H](O)[C@@H]3O)[C@@H](O)[C@H]2O)C=CC1; experiment: purified protein; conditions: O2, 50 mM sodium phosphate pH 7, 1 mg/mL BSA, ambient temperature
[9] = substrate: O=C(CO)COP(=O)(O)O; experiment: purified protein; conditions: acceptor aldehyde not stated; 'DHAP' printed as table sub-heading

CC(=O)OP(=O)(O)O [acetyl phosphate]
Km [1]: 390 ± 8 µM

B1: GlpKTk-AceKMs-Est2Aa (Mycolicibacterium smegmatis MC2 155) (protein)
chain: MTVLVVNSGSSSLKYAVVRPASGEFLADGIIEEIGSGAVPDHDAALRAAFDELAAAGLHLEDLDLKAVGHRMVHGGKTFYKPSVVDDELIAKARELSPLAPLHNPPAIKGIEVARKLLPDLPHIAVFDTAFFHDLPAPASTYAIDRELAETWHIKRYGFHGTSHEYVSQQAAIFLDRPLESLNQIVLHLGNGASASAVAGGKAVDTSMGLTPMEGLVMGTRSGDIDPGVIMYLWRTAGMSVDDIESMLNRRSGVLGLGGASDFRKLRELIESGDEHAKLAYDVYIHRLRKYIGAYMAVLGRTDVISFTAGVGENVPPVRRDALAGLGGLGIEIDDALNSAKSDEPRLISTPDSRVTVLVVPTNEELAIARACVGVV
Km [2]: 398 ± 29 µM

B2: G3PDEc-NOXCa-Est2Aa (Escherichia coli K-12) (protein)
chain: MNQRNASMTVIGAGSYGTALAITLARNGHEVVLWGHDPEHIATLERDRCNAAFLPDVPFPDTLHLESDLATALAASRNILVVVPSHVFGEVLRQIKPLMRPDARLVWATKGLEAETGRLLQDVAREALGDQIPLAVISGPTFAKELAAGLPTAISLASTDQTFADDLQQLLHCGKSFRVYSNPDFIGVQLGGAVKNVIAIGAGMSDGIGFGANARTALITRGLAEMSRLGAALGADPATFMGMAGLGDLVLTCTDNQSRNRRFGMMLGQGMDVQSAQEKIGQVVEGYRNTKEVRELAHRFGVEMPITEEIYQVLYCGKNAREAALTLLGRARKDERSSH
Km [3]: 164 ± 10 µM
Km [4]: 659 ± 47 µM
kcat [4]: 7 ± 0.6 s⁻¹
kcat/Km [4]: 11000 M⁻¹ s⁻¹

B3: GlpKTK-AceKMs-Est2Aa (Thermococcus kodakarensis KOD1) (protein)
chain: MEKFVLSLDEGTTSARAIIFDRESNIHGIGQYEFPQHYPRPGWVEHNPEEIWDAQLRAIKDAIQSARIEPNQIAAIGVTNQRETTLVWDKDGKPLYNAIVWQCRRTAEMVEEIKREYGTMIKEKTGLVPDAYFSASKLKWLLDNVPGLREKAEKGEVMFGTVDTFLIYRLTGEHVTDYSNASRTMLFNIKKLDWDDELLELFDIPESVLPEVRESSEVYGYTKKELLGAEIPVSGDAGDQQAALFGQAAFEAGMVKATYGTGSFILVNTDKMVLYSDNLLTTIAWGLNGRVSYALEGSIFVTGAAVQWLRDGIKIIKHASETEELATKLESNEGVYFVPAFVGLGAPYWDQFARGIIIGITRGTGREHLARATLEAIAYLTRDVVDEMEKLVQIKELRVDGGATANDFLMQFQADILNRKVIRPVVKETTALGAAYLAGLAVDYWADTREIAELWKAERIFEPKMDEKTRERLYKGWKEAVKRAMGWAKVVDSAKSN
Km [5]: 16 ± 4 µM
kcat [5]: 1400 ± 54 s⁻¹
kcat/Km [5]: 8.6e+07 M⁻¹ s⁻¹

B4: GlpKTk (Thermococcus kodakarensis KOD1) (protein)
chain: MEKFVLSLDEGTTSARAIIFDRESNIHGIGQYEFPQHYPRPGWVEHNPEEIWDAQLRAIKDAIQSARIEPNQIAAIGVTNQRETTLVWDKDGKPLYNAIVWQCRRTAEMVEEIKREYGTMIKEKTGLVPDAYFSASKLKWLLDNVPGLREKAEKGEVMFGTVDTFLIYRLTGEHVTDYSNASRTMLFNIKKLDWDDELLELFDIPESVLPEVRESSEVYGYTKKELLGAEIPVSGDAGDQQAALFGQAAFEAGMVKATYGTGSFILVNTDKMVLYSDNLLTTIAWGLNGRVSYALEGSIFVTGAAVQWLRDGIKIIKHASETEELATKLESNEGVYFVPAFVGLGAPYWDQFARGIIIGITRGTGREHLARATLEAIAYLTRDVVDEMEKLVQIKELRVDGGATANDFLMQFQADILNRKVIRPVVKETTALGAAYLAGLAVDYWADTREIAELWKAERIFEPKMDEKTRERLYKGWKEAVKRAMGWAKVVDSAKSN
Km [6]: 15 ± 2 µM
kcat [6]: 940 ± 8 s⁻¹

B5: G3PDEc (Escherichia coli K-12) (protein)
chain: MNQRNASMTVIGAGSYGTALAITLARNGHEVVLWGHDPEHIATLERDRCNAAFLPDVPFPDTLHLESDLATALAASRNILVVVPSHVFGEVLRQIKPLMRPDARLVWATKGLEAETGRLLQDVAREALGDQIPLAVISGPTFAKELAAGLPTAISLASTDQTFADDLQQLLHCGKSFRVYSNPDFIGVQLGGAVKNVIAIGAGMSDGIGFGANARTALITRGLAEMSRLGAALGADPATFMGMAGLGDLVLTCTDNQSRNRRFGMMLGQGMDVQSAQEKIGQVVEGYRNTKEVRELAHRFGVEMPITEEIYQVLYCGKNAREAALTLLGRARKDERSSH
Km [7]: 59 ± 4 µM
kcat [7]: 85 ± 11 s⁻¹

B6: NoxCa (Anaerocolumna aminovalerica) (protein)
chain: MKIVVIGCTHAGTAAVKTILKENPEAEITIFERNDNISFLSCGIALYVGGVVKDPAGLFYSNPEELSKMGANVKIKHNVKSIDTKSKKVIAEDMNTGEEIEVSYDKLVNTTGSWPIIPPIPGIESKNILLCKNYDQANVIIRQTKDAKKIVIVGGGYIGIELVEAFQKSGKQVTLIDGLDRILNKYLDKEFTDILEDDLKKNGINLALDQCVKSFKANENGEVTSVETTKGEYEADMVILCVGFRPNNELLKGKVDMLPNDAIIVDEYMRTSDPDIFAAGDSCAVHYNPNGNYAYIPLATNAVRMGMLIGKNISTPKVKYRGTQSTSGLNLFGYNIGSTGVTVSGAPQIGLNVRSVIVKDNYRPEFMPTNEEIIMQLVYEVGTNRIVGGQVMSKYDITQSANTLSLAIQNKMTIEDLAYVDFFFQPHFDRPWNYLNILGLAALEQEGL
Km [8]: 258 ± 21 µM
kcat [8]: 1,252 ± 182 s-1

B7: FruASc (Staphylococcus carnosus subsp. carnosus TM300) (protein)
chain: NQEQFDKIKNGKGFIAALDQSGGSTPKALKDYGVEENEYSNDEEMFNLVHDMRTRIITSPAFNGEKILGAILFEQTMDREVEGKYTGSYLADKGIVPFLKVDKGLAEEADGVQLMKPIPDLDKLLDRANERGIFGTKMRSNILENNKEAIEKVVKQQFEVAKEIIAAGLVPIIEPEVNINAKDKEAIEANLAEAIKAELDNLKKDQYVMLKLTIPTKVNAYSELIEHPQVIRVVALSGGYSRDEANKILKQNDGLIASFSRALVSDLNAQQSDAEFNEKLQEAIDTIFDASVNKA
Km [9]: 500 ± 80 µM
kcat [9]: 16 ± 2 s⁻¹

From article doi:10.1101/568972v1 (biorxiv, 2019)
